B1: mRNA-splicing (parent)
chain: AGUUGCUGCUGGGAGCUCCAGCACAGUGAAAUGGACAGAAGGGCAGAGCAA

Variants of: B1
Assay: exon inclusion enrichment index; higher = more inclusion; WT1 exon 5 minigene, HEK293

Variant	exon inclusion enrichment index
G5A C6U U7A G8U C9A A35C	0.00811
G5U G8U C9U A47G G48A	0.0435
G5C C6G U7C U10C A40U G41U	2.15
C6A U7A C9A U10A G11U	2.89
G5C C6U G8C C9U U10C A31G	2.47
G5A C6U U7A G8U C9A C36U A37G	0.0518
G5U G8U C9U C22A A23C	0.435
G5A C6G U7G C9A U17G C18U	0.00166
G5C C6U G8C C9U U10C G21U	1.22
C6A U7C C9A U10C G13C A14G	2.83
G5C C6G U7C U10C C24G A25G	2.96
G5U G8U C9U U10C G11A	0.133
G5C C6A U7C G8A U10A G28A A29U	0.0236
G5C C6A U7C G8A U10A C44U A45U	0.0623
C6A U7C C9A U10C A47G G48C	1.71
G5A C6U U7A G8U C9A C36G A37U	0.0196
G5A U7C G8A U10C A47C	2.83
G21U C22U	0.89
G5C C6G U7C U10C A23U C24A	2.3
G5U G8U C9U G15U C16G	0.064
C22G A23G	1.07

Variant	exon inclusion enrichment index
G5A C6G U7G C9A C19G A20G	0.00172
G5C C6A U7C G8A U10A C16A	0.0973
G5C C6U G8C C9U U10C A23C	1.9
G5A C6G U7G C9A G46C	0.00111
G5A C6U U7A G8U C9A C22U A23G	0.0485
G5A C6U U7A G8U C9A C22U A23U	0.0179
G5C C6U G8C C9U U10C U27C G28U	1.2
G5U G8U C9U C19U	0.00467
G5A U7C G8A U10C A29C	2.01
G5U G8U C9U U27C	0.478
G2U U3A G5U G8U C9U	0.51
G5A C6U U7A G8U C9A A31G U32G	0.0411
G5A C6G U7G C9A A45C	0.00288
G5A C6G U7G C9A G12A G13C	0.0057
G5U G8U C9U G13A A14U	0.349
C44G A45G	0.0345
G5A C6G U7G C9A A45G G46C	0.00144
G5A C6U U7A G8U C9A C18G	0.0618
G5A C6U U7A G8U C9A A47U G48A	0.0443
G5U G8U C9U G26C	0.177
G5C C6G U7C U10C A35C C36G	2.6

Variant	exon inclusion enrichment index
C6A U7C C9A U10C C44U A45U	2.71
G5C C6U G8C C9U U10C C22A A23U	1.31
C6A U7C G8C C9U U10C	2.28
G5C C6G U7C U10C A31G U32C	4.5
G5U G8U C9U G13C	0.0102
G5C C6G U7C U10C G41U G42U	2.79
C6A U7A C9A U10A G15C C16U	0.63
A39C A40C	0.407
A39C A40G	0.223
G33U	0.0261
G5C C6G U7C U10C G26A U27C	4.94
U4G C6G U7G C9A	0.0187
G5A C6U U7A G8U C9A U32C G33C	0.144
G5U G8U C9U C16G	0.0374
G5C C6G U7C U10C C36A A37U	2.07
G5A U7C G8A C9A U10C	2
G5C C6G U7C U10C A47U G48C	2.42
G5A U7C G8A U10C A30U A31C	2.13
A47C G48U	0.173
U4A G5C C6U U7A G8U C9A	0.177
G5U G8U C9U A23G C24G	0.604

Variant	exon inclusion enrichment index
G5C C6A U7C G8A U10A A31U U32C	0.293
G5C C6A U7C G8A U10A A31U U32G	0.0217
G5A C6U U7A G8U C9A A35U C36A	0.000817
C6A U7A C9A U10A A30G A31C	0.0339
G5C C6A G8C C9U U10C	2.4
G5A U7C G8A U10C A31G U32C	4.44
G2C	0.141
G5C C6U G8C C9U U10C G43A C44A	3.42
G5C C6G U7C U10C G21C C22G	4.61
C6A U7C G8A C9U U10C	2.34
C6A U7A C9A U10A A37C	1.72
G5C C6G U7C U10C A29G A30U	1.79
G5U G8U C9U G12C G13U	0.0014
C6A U7A C9A U10A G21A C22G	0.568
C6A U7C C9G U10G	0.132
G5U G8A C9U	0.205
G5U U7C G8U C9U	0.184
G5A C6U U7A G8U C9A A29U A30C	0.0463
G5A C6G U7G C9A A14C G15U	0.000655
C6U U7A C9A U10A	0.0567
G5C C6G U7C U10C G42C G43U	3.91

— the RNAGym collection of RNA variant scans (doi:10.1101/gr.219683.116)
